Legend:
flica_pseai fliC = flica_pseai fliC (UniProt P21184)
bak1_arath BAK1 = bak1_arath BAK1 (UniProt Q94F62)
Sequence of bak1_arath BAK1 (Q94F62 whole entry): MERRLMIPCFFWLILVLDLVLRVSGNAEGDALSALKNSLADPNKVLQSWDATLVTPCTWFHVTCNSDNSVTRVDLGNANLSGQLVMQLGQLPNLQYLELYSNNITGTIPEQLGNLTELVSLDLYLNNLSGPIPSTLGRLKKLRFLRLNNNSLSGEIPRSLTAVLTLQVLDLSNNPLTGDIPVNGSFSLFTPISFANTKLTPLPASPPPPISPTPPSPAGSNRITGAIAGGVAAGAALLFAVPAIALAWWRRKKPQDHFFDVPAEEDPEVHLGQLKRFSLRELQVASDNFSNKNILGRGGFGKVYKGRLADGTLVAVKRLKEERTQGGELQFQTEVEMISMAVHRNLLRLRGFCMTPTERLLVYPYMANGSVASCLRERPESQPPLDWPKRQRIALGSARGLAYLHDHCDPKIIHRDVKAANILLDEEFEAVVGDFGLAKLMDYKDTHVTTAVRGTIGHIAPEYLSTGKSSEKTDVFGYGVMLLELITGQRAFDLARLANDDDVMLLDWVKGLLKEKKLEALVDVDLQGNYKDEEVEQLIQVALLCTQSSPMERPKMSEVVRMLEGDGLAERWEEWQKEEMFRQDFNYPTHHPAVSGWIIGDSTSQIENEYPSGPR

Sequence of flica_pseai fliC (P21184 whole entry): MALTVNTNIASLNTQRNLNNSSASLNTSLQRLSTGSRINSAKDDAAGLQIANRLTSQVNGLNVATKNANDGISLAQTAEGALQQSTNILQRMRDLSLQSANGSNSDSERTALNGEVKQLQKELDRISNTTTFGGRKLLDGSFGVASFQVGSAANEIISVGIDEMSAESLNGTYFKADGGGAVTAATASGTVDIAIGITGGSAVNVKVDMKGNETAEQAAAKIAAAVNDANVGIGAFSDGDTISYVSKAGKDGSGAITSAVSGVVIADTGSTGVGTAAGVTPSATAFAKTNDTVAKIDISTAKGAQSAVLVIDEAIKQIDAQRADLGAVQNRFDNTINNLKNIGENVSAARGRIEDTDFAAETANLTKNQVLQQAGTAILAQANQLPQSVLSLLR
Sequence of LRR receptor-like serine/threonine-protein kinase FLS2 (Arabidopsis thaliana (Mouse-ear cress)), Q9FL28 S437Y (Q9FL28 whole entry S437Y): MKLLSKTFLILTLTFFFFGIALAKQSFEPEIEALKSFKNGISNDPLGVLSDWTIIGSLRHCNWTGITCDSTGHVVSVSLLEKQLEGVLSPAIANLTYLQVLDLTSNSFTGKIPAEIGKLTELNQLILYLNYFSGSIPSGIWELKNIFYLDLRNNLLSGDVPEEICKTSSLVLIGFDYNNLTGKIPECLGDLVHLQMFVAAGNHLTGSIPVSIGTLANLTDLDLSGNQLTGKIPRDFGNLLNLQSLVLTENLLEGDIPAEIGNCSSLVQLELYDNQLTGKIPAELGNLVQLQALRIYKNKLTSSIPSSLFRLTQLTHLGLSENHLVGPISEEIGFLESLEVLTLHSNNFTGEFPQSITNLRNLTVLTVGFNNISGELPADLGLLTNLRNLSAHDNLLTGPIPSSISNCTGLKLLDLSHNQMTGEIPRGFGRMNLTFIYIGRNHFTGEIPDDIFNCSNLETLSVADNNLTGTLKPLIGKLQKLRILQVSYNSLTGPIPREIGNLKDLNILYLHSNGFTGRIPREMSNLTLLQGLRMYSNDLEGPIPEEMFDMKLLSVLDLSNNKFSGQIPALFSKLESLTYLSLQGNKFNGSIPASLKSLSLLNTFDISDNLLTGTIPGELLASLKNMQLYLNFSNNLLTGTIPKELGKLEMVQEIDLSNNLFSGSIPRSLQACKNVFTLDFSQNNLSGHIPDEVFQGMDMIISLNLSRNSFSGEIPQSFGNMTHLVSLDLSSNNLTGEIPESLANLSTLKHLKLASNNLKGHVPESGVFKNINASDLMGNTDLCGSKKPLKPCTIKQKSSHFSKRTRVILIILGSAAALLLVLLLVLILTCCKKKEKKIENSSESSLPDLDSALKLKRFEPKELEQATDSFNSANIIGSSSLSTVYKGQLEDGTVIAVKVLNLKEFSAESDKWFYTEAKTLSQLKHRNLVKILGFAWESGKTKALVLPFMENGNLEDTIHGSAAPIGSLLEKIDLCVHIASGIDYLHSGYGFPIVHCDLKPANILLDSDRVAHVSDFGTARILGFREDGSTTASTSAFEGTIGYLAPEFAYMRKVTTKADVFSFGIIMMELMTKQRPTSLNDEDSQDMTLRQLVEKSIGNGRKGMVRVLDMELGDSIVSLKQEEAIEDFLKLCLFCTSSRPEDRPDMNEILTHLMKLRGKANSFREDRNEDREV
Sequence of LRR receptor-like serine/threonine-protein kinase FLS2 (Arabidopsis thaliana (Mouse-ear cress)), Q9FL28 T342Y (Q9FL28 whole entry T342Y): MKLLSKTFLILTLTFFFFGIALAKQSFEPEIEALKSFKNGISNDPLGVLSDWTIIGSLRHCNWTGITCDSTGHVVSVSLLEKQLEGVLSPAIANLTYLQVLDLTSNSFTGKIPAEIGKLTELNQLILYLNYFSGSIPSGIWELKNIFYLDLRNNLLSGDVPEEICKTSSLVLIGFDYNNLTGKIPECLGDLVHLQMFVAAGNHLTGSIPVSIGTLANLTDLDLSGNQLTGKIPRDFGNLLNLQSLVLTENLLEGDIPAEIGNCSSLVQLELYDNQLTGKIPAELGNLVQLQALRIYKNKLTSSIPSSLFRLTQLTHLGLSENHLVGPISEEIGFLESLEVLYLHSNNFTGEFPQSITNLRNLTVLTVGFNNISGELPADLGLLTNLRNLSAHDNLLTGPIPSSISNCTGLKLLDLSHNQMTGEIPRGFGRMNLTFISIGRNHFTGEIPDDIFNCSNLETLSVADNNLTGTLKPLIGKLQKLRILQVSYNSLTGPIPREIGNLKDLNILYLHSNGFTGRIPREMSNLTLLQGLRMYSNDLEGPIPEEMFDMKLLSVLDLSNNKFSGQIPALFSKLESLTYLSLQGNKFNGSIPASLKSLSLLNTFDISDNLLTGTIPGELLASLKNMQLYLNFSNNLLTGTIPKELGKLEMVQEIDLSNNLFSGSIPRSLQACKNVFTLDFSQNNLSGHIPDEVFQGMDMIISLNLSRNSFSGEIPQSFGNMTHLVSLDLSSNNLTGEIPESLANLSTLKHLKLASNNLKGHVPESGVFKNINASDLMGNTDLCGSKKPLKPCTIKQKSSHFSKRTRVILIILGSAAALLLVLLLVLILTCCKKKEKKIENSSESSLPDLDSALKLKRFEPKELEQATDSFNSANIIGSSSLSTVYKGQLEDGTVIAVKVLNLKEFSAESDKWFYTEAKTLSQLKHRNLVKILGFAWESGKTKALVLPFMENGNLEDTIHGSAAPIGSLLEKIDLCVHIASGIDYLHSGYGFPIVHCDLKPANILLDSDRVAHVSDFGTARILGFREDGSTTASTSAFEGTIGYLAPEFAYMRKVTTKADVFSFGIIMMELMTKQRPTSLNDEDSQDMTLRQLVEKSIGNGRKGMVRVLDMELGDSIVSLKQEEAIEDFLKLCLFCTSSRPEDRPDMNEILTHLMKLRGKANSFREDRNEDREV
Sequence of LRR receptor-like serine/threonine-protein kinase FLS2 (Arabidopsis thaliana (Mouse-ear cress)), Q9FL28 D414A (Q9FL28 whole entry D414A): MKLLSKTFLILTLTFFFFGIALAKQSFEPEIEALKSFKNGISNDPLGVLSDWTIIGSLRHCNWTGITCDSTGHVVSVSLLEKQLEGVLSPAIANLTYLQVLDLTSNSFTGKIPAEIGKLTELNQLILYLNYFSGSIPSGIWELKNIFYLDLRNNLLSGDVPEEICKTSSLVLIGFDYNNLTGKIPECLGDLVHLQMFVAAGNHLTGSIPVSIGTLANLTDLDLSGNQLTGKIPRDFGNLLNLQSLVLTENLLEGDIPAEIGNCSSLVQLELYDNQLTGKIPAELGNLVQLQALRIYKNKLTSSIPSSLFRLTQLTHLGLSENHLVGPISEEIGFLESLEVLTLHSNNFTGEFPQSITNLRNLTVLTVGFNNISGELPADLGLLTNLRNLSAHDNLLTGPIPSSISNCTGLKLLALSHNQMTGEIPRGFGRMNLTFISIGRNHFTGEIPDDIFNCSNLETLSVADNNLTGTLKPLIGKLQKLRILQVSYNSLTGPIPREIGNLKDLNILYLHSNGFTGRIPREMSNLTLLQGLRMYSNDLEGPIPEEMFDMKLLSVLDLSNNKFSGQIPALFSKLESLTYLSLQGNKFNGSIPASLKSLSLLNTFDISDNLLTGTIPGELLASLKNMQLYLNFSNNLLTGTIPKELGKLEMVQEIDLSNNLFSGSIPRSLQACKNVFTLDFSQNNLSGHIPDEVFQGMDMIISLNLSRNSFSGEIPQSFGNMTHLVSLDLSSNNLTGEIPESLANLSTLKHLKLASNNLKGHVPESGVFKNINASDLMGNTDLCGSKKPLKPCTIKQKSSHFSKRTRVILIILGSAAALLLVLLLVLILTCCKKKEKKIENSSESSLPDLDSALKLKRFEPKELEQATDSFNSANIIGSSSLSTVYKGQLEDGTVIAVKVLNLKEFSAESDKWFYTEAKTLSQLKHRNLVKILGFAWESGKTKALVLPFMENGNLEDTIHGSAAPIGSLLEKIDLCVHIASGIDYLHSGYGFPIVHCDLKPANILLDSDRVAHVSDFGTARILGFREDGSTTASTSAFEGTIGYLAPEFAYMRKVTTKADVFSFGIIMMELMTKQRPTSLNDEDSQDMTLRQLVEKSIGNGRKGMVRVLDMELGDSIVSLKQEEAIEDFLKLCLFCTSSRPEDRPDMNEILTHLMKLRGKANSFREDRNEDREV

Row | Substance | effect of a mutation on the interaction (flica_pseai fliC) | effect of a mutation on the interaction (bak1_arath BAK1)
1 | LRR receptor-like serine/threonine-protein kinase FLS2 (Arabidopsis thaliana (Mouse-ear cress)), Q9FL28 T342Y | disrupting interaction strength | disrupting interaction strength
2 | LRR receptor-like serine/threonine-protein kinase FLS2 (Arabidopsis thaliana (Mouse-ear cress)), Q9FL28 R294A;H316A | disrupting interaction strength | disrupting interaction strength
3 | LRR receptor-like serine/threonine-protein kinase FLS2 (Arabidopsis thaliana (Mouse-ear cress)), Q9FL28 S437Y | decreasing interaction strength | decreasing interaction strength
4 | LRR receptor-like serine/threonine-protein kinase FLS2 (Arabidopsis thaliana (Mouse-ear cress)), Q9FL28 D414A | decreasing interaction strength | decreasing interaction strength

Source: IntAct's records for PubMed 24114786
